Data from paper PMC9332396.

Target: His6-NbSWP12 recombinant protein (spore wall protein NbSWP12 of Nosema bombycis) (Nosema bombycis)
Experiment: non-reducing SDS-PAGE with Western blot; purified His6-NbSWP12 in non-reducing loading buffer (no SDS, no β-mercaptoethanol, not heated), 12% gel, blot with NbSWP12 antiserum

“His6-NbSWP12 recombinant protein (spore wall protein NbSWP12 of Nosema bombycis) (natural protein)” showed a stoichiometry N of 2.
